Measurements: patent US20240327530A1 (ICHNOS SCIENCES, published 2024)

T1: Recombinant human IL-1RAP-ECD(S21-E359)-avi-his protein (human, UniProt Q9NPH3 21-359)
T1 construct: Biotinylated where loaded on streptavidin; also called human IL-1RAP-ECD-Avi-His; recombinant human IL-1RAP-avi-his protein
T1 sequence: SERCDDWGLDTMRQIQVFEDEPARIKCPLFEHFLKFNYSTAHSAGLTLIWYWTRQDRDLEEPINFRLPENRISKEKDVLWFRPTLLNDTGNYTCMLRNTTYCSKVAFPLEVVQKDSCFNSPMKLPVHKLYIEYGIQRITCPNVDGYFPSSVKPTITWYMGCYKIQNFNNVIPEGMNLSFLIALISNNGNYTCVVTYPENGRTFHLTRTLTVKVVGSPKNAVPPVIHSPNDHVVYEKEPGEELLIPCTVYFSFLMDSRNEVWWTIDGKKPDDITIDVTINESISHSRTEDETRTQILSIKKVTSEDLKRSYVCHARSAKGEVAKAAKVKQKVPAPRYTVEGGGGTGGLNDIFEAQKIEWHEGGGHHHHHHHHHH

T2: Mouse IL-1RAP, membrane-bound on NIH-3T3 cells (mouse, UniProt Q61730 21-570)
T2 construct: Endogenous protein on cells
T2 sequence (looked up): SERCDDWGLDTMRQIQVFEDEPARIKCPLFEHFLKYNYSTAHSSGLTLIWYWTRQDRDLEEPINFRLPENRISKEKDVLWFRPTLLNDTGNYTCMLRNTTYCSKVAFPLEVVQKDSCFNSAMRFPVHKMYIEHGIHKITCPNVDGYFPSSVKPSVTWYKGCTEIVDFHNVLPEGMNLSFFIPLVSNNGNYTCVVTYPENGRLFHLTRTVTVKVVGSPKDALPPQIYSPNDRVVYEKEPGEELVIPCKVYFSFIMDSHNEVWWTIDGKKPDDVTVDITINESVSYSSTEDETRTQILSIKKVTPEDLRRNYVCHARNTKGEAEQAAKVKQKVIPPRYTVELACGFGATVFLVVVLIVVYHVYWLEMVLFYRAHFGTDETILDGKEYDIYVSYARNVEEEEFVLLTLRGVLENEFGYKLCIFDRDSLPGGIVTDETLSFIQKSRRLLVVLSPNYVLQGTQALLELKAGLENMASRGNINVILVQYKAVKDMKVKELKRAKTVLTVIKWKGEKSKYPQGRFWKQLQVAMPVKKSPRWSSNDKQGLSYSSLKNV

B1: Anti-IL-1RAP-C8-RecC-ES-IgG1LALA (antibody, V domains shown)
VH: QVQLVQSGAEVKKPGSSVKVSCKASGSPAEPYAIQWVRQAPGQGLEWMGYIIPSLGGYDYAQKFQGRVTITADESTSTAYMELSSLRSEDTAVYYCARGQTLYESGRQFDIWGQGTLVTVSS
VL: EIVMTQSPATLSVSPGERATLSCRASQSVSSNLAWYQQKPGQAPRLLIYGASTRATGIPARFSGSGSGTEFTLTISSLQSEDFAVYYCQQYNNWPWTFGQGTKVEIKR
notes: also called ISB 880-C8-recC-ES
B2: Anti-IL-1RAP-C3-A3 mmIgG2a LALA (antibody, V domains shown)
VH: EVQLLESGGGLVQPGGSLRLSCAASGFIFSHYGMSWVRQAPGKGLEWVSAISYDGEGTLYADSVKGRFTISRDNSKNTLYLQMNSLRAEDTAVYYCARFRYYTAFDYWGQGTLVTVSS
VL: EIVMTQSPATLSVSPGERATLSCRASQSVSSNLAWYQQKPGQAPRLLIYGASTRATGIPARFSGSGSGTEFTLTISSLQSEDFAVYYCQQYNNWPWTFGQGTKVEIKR
notes: also called anti-IL-1RAP-C3-A3 mouse IgG2a LALA

Tests used:
[1] = target: T1, Recombinant human …; assay: SPR, IgG1 LALA captured by anti-human Fc, human IL-1RAP-avi-his as analyte, 1:1 fit
Experimental: Surface plasmon resonance (SPR) was used to measure the binding affinities of the human IgG1 LALA molecules for human and cynomolgus monkey IL-1RAP. Affinities were measured on a BIACORE™ T200 instrument (BIACORE™, GE […]®) at 25° C. and analyzed with the BIACORE™ T200 Evaluation Software (v3.1). Measurements were performed on Series S CM5 sensor chips (BIACORE™ T200, BIACORE™, GE […]®, catalog no. BR100530) coupled with anti-human IgG Fc (BIACORE™, GE […]®, catalog no. BR100839) using a commercial amine coupling kit (BIACORE™, GE […]®, catalog no. BR100050). SPR measurements were performed with recombinant human IL-1RAP-avi-his protein produced in house (SEQ ID NO. 1) or recombinant cynomolgus monkey IL-1RAP-avi-his protein produced in house (SEQ ID NO. 2). The affinities to human and cynomolgus monkey IL-1RAP were assessed by immobilizing anti-IL-1RAP IgG1 LALA molecules and using IL-1RAP proteins as analyte. Around 150 RU of human IgG1 LALA were captured on fc2 of a Series S CM5 sensor chip coupled with anti-human IgG Fc. Recombinant human IL-1RAP-avi-his protein or recombinant cynomolgus monkey IL-1RAP-avi-his protein was injected in multi cycle kinetic at different concentrations ranging from 0.14 to 100 nM, in HBS-EP+ buffer (BIACORE™, GE […]®, catalog no. BR100669) at a flow rate of 30 μl/min for 3 min on fc1 and fc2 (fc1 being used as reference). Dissociation was monitored for 12 min. After each cycle, the surface was regenerated with 60 μl of regeneration solution provided with anti-human IgG Fc capture kit (BIACORE™, GE […]®, catalog no. BR100839). Experimental data were processed using the 1:1 Langmuir kinetic fitting model. Measurements included zero-concentration samples for referencing. Chi², U- and residual values were used to evaluate the quality of a fit between the experimental data and individual binding models.

[2] = target: T2, Mouse IL-1RAP, membrane-bound on …; assay: flow cytometry on NIH-3T3 cells, PE-Cyanine7 secondary antibody, relative mean fluorescence intensity (isotype subtracted); lower of two curves
Experimental: In brief, cells were harvested, counted, and plated at 50′000 cells/well in a 96-well round-bottom plate. The plate was centrifuged at 350 g for 3 minutes and the cells were resuspended in […] of FACS® buffer (PBS (1×)+2.5% FCS+2 mM EDTA+0.05% NaN₃) containing various concentrations (ranging from 20 to 0.0001 μg/ml) of either anti-mouse IL-1RAP_candidate_1 or Isotype control_2 antibodies. Stained cells were incubated for 30 minutes at 4° C., washed twice with FACS® buffer at 350 g for 3 min and resuspended in 100 μl of a monoclonal anti-mouse IgG PE-Cyanine7 secondary antibody (Biolegend, 407114) diluted 1/200 in FACS® buffer. Cells were then washed twice, and resuspended in 200 μl of FACS® buffer containing SYTOX® Green dead cell stain (THERMO FISHER […]®, S34860) and samples were acquired on a CYTOFLEX® instruments (Beckman Coulter). The cells were gated based on size on FSC vs SSC and analysed for PE-Cyanine7-geometric mean (geomean) fluorescence intensity using FLOWJO® software. Finally, relative geomean fluorescence intensity was calculated by subtracting fluorescence of anti-mouse IL-1RAP_candidate_1 per fluorescence of Isotype control_2. As depicted in FIG. 11, anti-mouse IL-1RAP_candidate_1 antibody recognizes membrane-bound IL-1RAP expressed on NIH-3T3 cell line. […] Each data point is a measurement for a given cell line. […]

| Binder | Kd [1] [nM] | koff [1] [s⁻¹] | kon [1] [M⁻¹ s⁻¹] | EC50 (read off the curve) [2] [µg/mL] |
| --- | --- | --- | --- | --- |
| B1 | 0.251 | 0.000172 | 693000 | – |
| B2 | – | – | – | ~0.3 |
